Test results: patent US20240294646A1
pKd: −log10 of the molar value. Values belong to the substance of their own block, whether it stands above or below them.

Columns and labels:
FcγRIIaR [1] = target: FcγRIIaR (UniProt P12318); assay: SPR (Protocol 2, Biacore 4000), antibody captured on immobilised HER2, FcγR as analyte
[2] = target: Soluble FcγRIIb extracellular domain with C-terminal 10xHis tag (UniProt P31994); assay: SPR; IIb-Fold / IIaR-Fold
[3] = target: Soluble FcγRIIaR extracellular domain with C-terminal 10xHis tag (UniProt P12318); assay: SPR; fold change in affinity over WT v16463
[4] = target: Soluble FcγRIIb extracellular domain with C-terminal 10xHis tag (UniProt P31994); assay: SPR; fold change in affinity over WT v16463
[5] = target: Soluble FcγRIIaR extracellular domain with C-terminal 10xHis tag (UniProt P12318); assay: SPR, antibody captured on immobilised HER2, soluble receptor as analyte
[6] = target: Soluble FcγRIIb extracellular domain with C-terminal 10xHis tag (UniProt P31994); assay: as above
[7] = target: Soluble FcγRIIaR extracellular domain with C-terminal 10×His tag (UniProt P12318); assay: SPR; KD ratio against wild-type v16463
[8] = target: Soluble FcγRIIb extracellular domain with C-terminal 10×His tag (UniProt P31994); assay: SPR; KD ratio against wild-type v16463
[9] = target: Soluble FcγRIIaR extracellular domain with C-terminal 10×His tag (UniProt P12318); assay: SPR, antibody captured on HER2 chip, receptor as analyte
[10] = target: Soluble FcγRIIb extracellular domain with C-terminal 10×His tag (UniProt P31994); assay: as above
[11] = target: Soluble FcγRIIb extracellular domain with C-terminal 10×His tag (UniProt P31994); assay: SPR; ratio of IIb-Fold to IIaR-Fold (FcγRIIb against FcγRIIaR)
[12] = target: Soluble FcγRIIb extracellular domain with C-terminal 10×His tag (UniProt P31994); assay: SPR (Protocol 2); ratio of FcγRIIb fold to FcγRIIaR fold over wild-type
[13] = target: Soluble FcγRIIaR extracellular domain with C-terminal 10×His tag (UniProt P12318); assay: SPR (Protocol 2): full-size antibody captured on immobilised HER2, soluble receptor as analyte; fold over wild-type
[14] = target: Soluble FcγRIIb extracellular domain with C-terminal 10×His tag (UniProt P31994); assay: as above
[15] = target: Soluble FcγRIIb extracellular domain with C-terminal 10xHis tag (UniProt P31994); assay: SPR Protocol 2; IIb-Fold relative to control v27294
[16] = target: Soluble FcγRIIb extracellular domain with C-terminal 10xHis tag (UniProt P31994); assay: SPR Protocol 2; IIb selectivity relative to control v27294
[17] = target: Soluble FcγRIIb extracellular domain with C-terminal 10xHis tag (UniProt P31994); assay: SPR Protocol 2; ratio IIb-Fold/IIaR-Fold (FcγRIIb against FcγRIIaR)
[18] = target: Soluble FcγRIIaR extracellular domain with C-terminal 10xHis tag (UniProt P12318); assay: SPR Protocol 2, OAA captured on HER2 chip, receptor as analyte; KD(WT v16463)/KD(variant)
[19] = target: Soluble FcγRIIb extracellular domain with C-terminal 10xHis tag (UniProt P31994); assay: as above
[20] = target: Soluble FcγRIIaR extracellular domain with C-terminal 10xHis tag (UniProt P12318); assay: SPR, antibody captured on HER2, receptor as analyte
[21] = target: Soluble FcγRIIb extracellular domain with C-terminal 10xHis tag (UniProt P31994); assay: as above
[22] = target: Soluble FcγRIIb extracellular domain with C-terminal 10xHis tag (UniProt P31994); assay: SPR; ratio of the fold for FcγRIIb to the fold for FcγRIIaR
[23] = target: Biotinylated FcγRIIb extracellular domain-Fc fusion (human IgG1 Fc L234A_L235A_D265S) (human) (UniProt P31994); assay: competition electrochemiluminescence (MSD), antibody on HER2-coated plate, biotinylated FcγRIIb-Fc; competitor FcγRIIaR-Fc
FcγRI = FcγRI (UniProt P12314); assay: SPR (ProteOn XPR36), antibody captured on immobilized HER2, FcγR as analyte, equilibrium fit
FcγRIIIaV = FcγRIIIaV (UniProt P08637); assay: as above
FcγRIIaH = FcγRIIaH (UniProt P12318); assay: as above
FcγRIIaR [24] = target: FcγRIIaR (UniProt P12318); assay: as above
FcγRIIb [25] = target: FcγRIIb (UniProt P31994); assay: as above
FcγRIIb [26] = target: FcγRIIb (UniProt P31994); assay: SPR; ratio of IIb-fold to IIaR-fold, FcγRIIaR as comparison receptor
[27] = target: Recombinant human C1q (C1740, Sigma Aldrich) (human) (UniProt P02745); assay: ELISA; antibody coated on plate, human C1q added; signal as % of wild-type
FcγRIIb [28] = target: FcγRIIb (UniProt P31994); assay: SPR; trastuzumab FSA variant against soluble FcγRIIb; KD ratio to wild-type FSA v21653
FcγRIIaR [29] = target: FcγRIIaR (UniProt P12318); assay: SPR; trastuzumab FSA variant against soluble FcγRIIaR; KD ratio to wild-type FSA v21653
[30] = target: Biotinylated FcγRIIb extracellular domain-Fc fusion (human IgG1 Fc with L234A_L235A_D265S) (human) (UniProt P31994); assay: competition electrochemiluminescence, antibody on HER2-coated plate, biotinylated FcγRIIb-Fc; competitor FcγRIIaR-Fc at 10x
[31] = target: Soluble FcγRIIb extracellular domain with C-terminal 10xHis tag (UniProt P31994); assay: SPR (Biacore 4000), antibody captured on immobilised HER2, receptor as analyte

Substance: Variant 16463, wild-type one-armed antibody (Scaffold 2: one trastuzumab Fab and heterodimeric IgG1 Fc)
pKd (FcγRIIaR [1]): 6.44

Substance: Variant 16463, wild-type one-armed trastuzumab antibody (Scaffold 2)
IIb Selectivity [2]: 1
IIaR-fold [3]: 1 fold
IIb-Fold [4]: 1 fold
pKd [5]: 6.51
pKd [6]: 5.85

Substance: Variant 22127, full-size antibody (FSA) format of v19540 (trastuzumab, heterodimeric IgG1 Fc; A: L234D_G236N_S267A / B: G236D_S239D_V266L_S267A_H268D)
IIb/IIaR Selectivity (IIb-Fold/IIaR-Fold) [12]: 15.2
IIaR-fold (fold change in affinity over wild-type) [13]: 1.6 fold
IIb-fold (fold change in affinity over wild-type) [14]: 23.9 fold

Substance: Variant 22128, full-size antibody (FSA) format of v19585 (trastuzumab, heterodimeric IgG1 Fc; A: L234F_G236N_H268Q_K274Q_A327G_A330K_P331S / B: L234F_G236D_S239D_V266L_S267A_H268D_K274Q_A327G_A330S_P331S)
IIb/IIaR Selectivity (IIb-Fold/IIaR-Fold) [12]: 11.3
IIaR-fold (fold change in affinity over wild-type) [13]: 3.3 fold
IIb-fold (fold change in affinity over wild-type) [14]: 37.4 fold

Substance: Variant 31522 (trastuzumab full-size antibody, electrostatic steering heterodimeric IgG1 Fc, no CH2 mutations; parental scaffold)
pKd (FcγRI): 10.15
pKd (FcγRIIIaV): 5.80
pKd (FcγRIIaH): 5.82
pKd (FcγRIIaR [24]): 5.68
pKd (FcγRIIb [25]): 5.20

Substance: Variant 32293, trastuzumab full-size antibody (chain A S267A_strat2; chain B D329*I_I332L-strat1)
IIb Selectivity (IIb-Fold/IIaR-Fold) (FcγRIIb [26]): 58 fold
C1q Binding (% WT) [27]: 2 % WT
IIb-fold (fold change in affinity over wild-type) (FcγRIIb [28]): 323 fold
IIaR-fold (fold change in affinity over wild-type) (FcγRIIaR [29]): 6 fold

Substance: v12 (IIb-specific comparator, symmetrical E233D_G237D_P238D_H268D_P271G_A330R) (antibody)
IIaR-Fold (affinity fold over WT v16463) [20]: 1.4 fold
pKd [20]: 6.66
IIb-Fold (affinity fold over WT v16463) [21]: 112 fold
pKd [21]: 7.89
IIb Selectivity (IIb-Fold/IIaR-Fold) [22]: 80.5
ELISA (% of non-competed FcγRIIb signal in presence of 10x FcγRIIa) [23]: 100%

Substance: v12, IIb-specific comparator with symmetrical E233D_G237D_P238D_H268D_P271G_A330R (Mimoto et al. 2013) (antibody)
IIb Selectivity [2]: 80.5
IIaR-fold [3]: 1.4 fold
IIb-Fold [4]: 112 fold
pKd [5]: 6.66
pKd [6]: 7.89
ELISA (% of non-competed FcγRIIb signal in presence of 10x FcγRIIa) [30]: 100%

Further lines, results first:

IIaR-fold [7]: 1 fold
IIb-Fold [8]: 1 fold
pKd [9]: 6.51
pKd [10]: 5.85
IIb Selectivity (IIb-Fold/IIaR-Fold) [11]: 1 fold
Substance: Variant 16463, wild-type one-armed trastuzumab antibody with heterodimeric IgG1 Fc (Scaffold 2)

IIb-Fold wrt Control [15]: 1 fold
IIb Selectivity Improvement wrt Control [16]: 1.1 fold
IIb Selectivity (IIb-Fold/IIaR-Fold) [17]: 14.9 fold
IIaR-fold (fold change in affinity over wild-type) [18]: 6 fold
IIb-fold (fold change in affinity over wild-type) [19]: 89.7 fold
Substance: Variant 26747 (A_E272V_strat2), one-armed trastuzumab antibody with heterodimeric IgG1 Fc

IIb-Fold wrt Control [15]: 0.6 fold
IIb Selectivity Improvement wrt Control [16]: 0.8 fold
IIb Selectivity (IIb-Fold/IIaR-Fold) [17]: 11.2 fold
IIaR-fold (fold change in affinity over wild-type) [18]: 5.4 fold
IIb-fold (fold change in affinity over wild-type) [19]: 60.1 fold
Substance: Variant 26751 (A_E272W_strat2), one-armed trastuzumab antibody with heterodimeric IgG1 Fc

IIb-Fold wrt Control [15]: 0.9 fold
IIb Selectivity Improvement wrt Control [16]: 1.3 fold
IIb Selectivity (IIb-Fold/IIaR-Fold) [17]: 17.5 fold
IIaR-fold (fold change in affinity over wild-type) [18]: 4.6 fold
IIb-fold (fold change in affinity over wild-type) [19]: 79.8 fold
Substance: Variant 26752 (A_E272Y_strat2), one-armed trastuzumab antibody with heterodimeric IgG1 Fc

IIaR-Fold (affinity fold over WT v16463) [20]: 35.2 fold
IIaR-Fold wrt Control (v27293) [20]: 1 fold
pKd [20]: 8.06
IIb-Fold (affinity fold over WT v16463) [21]: 415 fold
IIb-Fold wrt Control (v27293) [21]: 1 fold
pKd [21]: 8.46
IIb Selectivity (IIb-Fold/IIaR-Fold) [22]: 11.8
IIb Selectivity Fold wrt Control (v27293) [22]: 1 fold
ELISA (% of non-competed FcγRIIb signal in presence of 10x FcγRIIa) [23]: 70.8%
Substance: Variant 27293 (strat1_control; Launching Module 1: A_G236N_G237A B_G236D_G237F_S239D_S267V_H268D_Template_1) (antibody)

pKd (FcγRI): 10.17
pKd (FcγRIIIaV): 5.92
pKd (FcγRIIaH): 5.94
pKd (FcγRIIaR [24]): 5.82
pKd (FcγRIIb [25]): 5.38
Substance: Variant 31509 (trastuzumab full-size antibody, Azymetric heterodimeric IgG1 Fc, no CH2 mutations; parental scaffold)

pKd (FcγRI): 10.01
pKd (FcγRIIIaV): 5.72
pKd (FcγRIIaR [24]): 5.59
pKd (FcγRIIb [25]): 5.11
Substance: Variant 31521 (trastuzumab full-size antibody, knobs-into-holes heterodimeric IgG1 Fc, no CH2 mutations; parental scaffold)

IIb Selectivity (IIb-Fold/IIaR-Fold) (FcγRIIb [26]): 78 fold
C1q Binding (% WT) [27]: 2 % WT
IIb-fold (fold change in affinity over wild-type) (FcγRIIb [28]): 451 fold
IIaR-fold (fold change in affinity over wild-type) (FcγRIIaR [29]): 6 fold
Substance: Variant 32292, trastuzumab full-size antibody (chain A L235D_strat2; chain B D329*I_I332L-strat1)

IIb Selectivity (IIb-Fold/IIaR-Fold) (FcγRIIb [26]): 82 fold
C1q Binding (% WT) [27]: -1 % WT
IIb-fold (fold change in affinity over wild-type) (FcγRIIb [28]): 103 fold
IIaR-fold (fold change in affinity over wild-type) (FcγRIIaR [29]): 1 fold
Substance: Variant 32295, trastuzumab full-size antibody (chain A P329I_strat2; chain B D329*I_I332L-strat1)

pKd [31]: 6.82
Substance: v27362, strat3_control (A_G236N_G237A B_G236D_G237F_S239D_S267V_H268D) (antibody)
